How the values were obtained:
Wistar rats = experiment: In vivo protective role against lethal irradiation, survival of Wistar rats; parameters: species or system rat; conditions: 0.1 mg/kg s.c. one hour before single total dose of 9.6 Gy, FIG. 16
Description: One hour later, rats were irradiated for about 30 min with a single total dose of 9.6 Gy and survival was monitored daily (FIG. 16).

NF-kB = NF-kB reporter system luciferase assay in transiently transfected CACO-2 cells; format: cell-based; conditions: CACO-2 cells transfected with mock vector delta NFkB-Luc
Description: All transfections were performed in triplicate in 24-well plates. Approximately 2×10^5 CACO-2 cells per well were seeded 24 h before transfection. Following the manufacturer's instructions, plasmids were transfected into cells using FUGENE transfection reagent (Promega, Medison, Wis.). Briefly, 0.8 μg of reporter plasmids carrying different NF-kB responsive elements (IL8-Luc, IGkB-Luc) plus 0.05 μg of pCMV-LacZ vector were diluted with Opti-MEM and then mixed with diluted liposomes. After 20 min of incubation at room temperature, the mixtures were added to each well. […] Each experiment was conducted a minimum of three times.

B1: VINCRO1 (protein)
chain: LTIQVGANDGETIDIDLKQINSQTLSSSGSSGSSGSSIDAALAQVDALRSDLGAVQNRFNSA
modifications: left off: small tags and cut ends
B1 was tested, and the “protection from lethal irradiation (survival)” value (Wistar rats) was “protect Wistar rats from lethal irradiation” and the “luciferase activity with mock vector (specificity control)” value (NF-kB) was “no luciferase activity”.

From US20170051021A1, “PEPTIDE AGONISTS OF TOLL-LIKE RECEPTOR 5 LIGAND AND METHOD OF USE” (priority 2014, published 2017)
